Experimental data published in patent publication US20230322943A1 (SUNSHINE GUOJIAN PHARMACEUTICAL SHANGHAI, published 2023).

How the values were obtained:
[1] = biological target: T1, human full-length CD38 on cells (human, UniProt P28907 1-300); experiment: cell-based or functional assay
[2] = biological target: T1, human full-length CD38 on cells; experiment: flow cytometry on Daudi cells (MFI), FITC goat anti-human Fc secondary antibody
Method: After Daudi cells were counted, PBS solution containing 1% BSA was used to inoculate the cells into 96-well round-bottom culture plates with 2×10⁵ cells per well. 50 µl anti-CD38 antibody in gradient dilution with PBS solution was added to the 96-well plate. The plate was incubated at room temperature for 1 h, then it was centrifuged to discard the supernatant. Then the cells was washed with PBS twice. FITC-labeled goat anti-human (Fc-Speicific) antibody was added (1:1000 diluted with PBS containing 1% BSA) and the plate was incubated at room temperature for half an hour. The cells was centrifuged and washed, then the Mean Fluorescence Intensity (MFI) of the FITC channel was detected by flow cytometry. The flow cytometer software was used to process the experimental data and the mean fluorescence intensity was calculated. The GraphPad Prism6 was used for data analysis and mapping, and EC50 was calculated.

[3] = biological target: T2, human CD38-Fc protein (human, UniProt P28907 43-300); experiment: indirect ELISA, CD38-Fc coated at 1 ug/ml, HRP goat anti-mouse IgG
T2 construct: extracellular domain; Recombinant Fc-tagged extracellular segment of human CD38; not shown: Fc tag

[4] = biological target: T1, human full-length CD38 on cells; experiment: flow cytometry on CHOS-CD38 cells, PE secondary antibody
From the text: (§1) Flow cytometry was used to detect the binding activity of murine antibodies to recombinant high-expression cell line CHOS-CD38 cells and tumor cell line DND-41 cells. The specific methods were as follows:
(§2) CHOS-CD38 and DND-41 cells were collected, centrifuged to remove the cell culture medium, and the cells were washed twice with PBS buffer. The cells were counted and diluted with 1%BSA FACS buffer to 2^{∗}10⁶ cells/ml. The cells were spread into round-bottom 96-well plate for use. The antibody to be tested was diluted with 1%BSA buffer for 8 gradients and added to the round-bottom plate with the above cells. The plate was incubated at 4° C. for 1 hour. After centrifugation, the supernatant was removed and the plate was washed 3 times with 1% BSA FACS buffer. 100 µl donkey anti-mouse PE fluorescent secondary antibody or goat anti-human PE fluorescent secondary antibody was added to each well at a ratio of 1:300 (see the instructions for fluorescent secondary antibody for details), and the plate was incubated at 4° C. for 1 hour. The samples were washed for 3 times with 1% BSA FACS buffer and then re-suspended with 1% BSA FACS buffer at 200 µl/well. FACScalibur BD was used to analyze the samples.

[5] = biological target: T1, human full-length CD38 on cells; experiment: flow cytometry on DND-41 tumor cells, PE secondary antibody
From the text: as §1, §2

B1: 50G12-Humanized (antibody, human IgG1, kappa, V domains shown)
VH: QVQLVQSGAEVKKPGASVKVSCKASGYTFNTYWMQWVRQAPGQGLEWMGAIYPGDGDITYNQKFKGRVTLTADKSTSTVYMELSSLRSEDTAVYYCAREGYYYGGALDYWGQGTLVTVSS
VL: DIQMTQSPSSLSASVGDRVTITCTASSSVSSSYLHWYQQKPGKAPKLWMYGTSNLASGVPSRFSGSGSGTDYTLTISSLQPEDFATYYCHRYHRSPWTFGQGTKVEIKR
notes: Human IgG1 / Kappa; also called humanized antibody 50G12-Humanized; 50G12-Hu-HC / 50G12-Hu-LC
[1]
  ADCC EC50 (Daudi target cells, human PBMC effectors, LDH release): 0.106 nM
  apoptosis induction EC50 (Daudi cells, Annexin V-FITC): 0.568 nM
[2]
  EC50: 0.605 nM

B2: murine antibody 50G12 (antibody, V domains shown)
VH: QVQLQQSGAELARPGASVKLSCKASGYTFNTYWMQWVKQRPGQGLEWIGAIYPGDGDITYNQKFKGKATLTADKSSNTAYMHLSSLASEDSAVYYCAREGYYYGGALDYWGQGTSVTVSS
VL: QIFLTQSPAIMSASLGERVTMTCTASSSVSSSYLHWYQQKPGSPPKLWMYGTSNLASGVPPRFSGSGSGTSYSLTISSMEAEDAATYYCHRYHRSPWTFGGGTKLEIK
notes: Mouse monoclonal antibody purified from hybridoma supernatant by Protein G; also called 50Ga12; 50G12 murine antibody
[3]
  EC50: 0.173 nM
[4]
  EC50: 0.687 µg/mL
[5]
  EC50: 0.134 µg/mL

B3: 50G12-Chimeric (antibody, human IgG1, V domains shown)
VH: QVQLQQSGAELARPGASVKLSCKASGYTFNTYWMQWVKQRPGQGLEWIGAIYPGDGDITYNQKFKGKATLTADKSSNTAYMHLSSLASEDSAVYYCAREGYYYGGALDYWGQGTSVTVSS
VL: QIFLTQSPAIMSASLGERVTMTCTASSSVSSSYLHWYQQKPGSPPKLWMYGTSNLASGVPPRFSGSGSGTSYSLTISSMEAEDAATYYCHRYHRSPWTFGGGTKLEIK
notes: Murine 50G12 VH joined to the human IgG1 heavy chain constant region and murine 50G12 VL joined to the human Kappa chain constant region; also called 50G12-Chimeic; 50G12-Chi-HC / 50G12-Chi-LC
[2]
  EC50: 0.528 nM
